The source of these data is US20040171019.

For the series, the target named is T1, Suc-AEPF-pNA peptide substrate.
T1 chain: AEPF

B1: mutant PIN1 PPIase (K77Q/K82Q) (protein)
chain: GSHMGKNGQGEPARVRCSHLLVKHSQSRRPSSWRQEQITRTQEEALELINGYIQKIKSGEEDFESLASQFSDCSSAKARGDLGAFSRGQMQKPFEDASFALRTGEMSGPVFTDSGIHIILRTE
For B1, the Km entry is “The Km for this substrate was much higher than 100 µM ([S]<<Km)”; the “rate (rate constant k of the peptidyl-prolyl isomerase reaction)” value is “both wild type human PIN1 and mutant PIN1 PPIAse, at 0.033 nM with 100 µM Suc-AEPF-pNA, had a rate of 0.2”.
